Experimental data published in publication PMC6774396 (Frontiers in Immunology, 2019).

B1: WT: wild-type human L-selectin, C-terminally tagged with GFP or RFP, expressed in THP-1 cells (protein)
chain: WTYHYSEKPMNWQRARRFCRDNYTDLVAIQNKAEIEYLEKTLPFSRSYYWIGIRKIGGIWTWVGTNKSLTEEAENWGDGEPNNKKNKEDCVEIYIKRNKDAGKWNDDACHKLKAALCYTASCQPWSCSGHGECVEIINNYTCNCDVGYYGPQCQFVIQCEPLEAPELGTMDCTHPLGNFSFSSQCAFSCSEGTNLTGIEETTCGPFGNWSSPEPTCQVIQCEPLSAPDLGIMNCSHPLASFSFTSACTFICSEGTELIGKKKTICESSGIWSNPSPICQKLDKSFSMIKEGDYNPLFIPVAVMVTAFSGLAFIIWLARRLKKGKKSKRSMNDPY
modifications: left off: eGFP (donor copy) or mCherry (acceptor copy, called RFP), C-terminal, kept
B2: SSAA: L-selectin with Ser^364 and Ser^367 both mutated to alanines (protein)
chain: WTYHYSEKPMNWQRARRFCRDNYTDLVAIQNKAEIEYLEKTLPFSRSYYWIGIRKIGGIWTWVGTNKSLTEEAENWGDGEPNNKKNKEDCVEIYIKRNKDAGKWNDDACHKLKAALCYTASCQPWSCSGHGECVEIINNYTCNCDVGYYGPQCQFVIQCEPLEAPELGTMDCTHPLGNFSFSSQCAFSCSEGTNLTGIEETTCGPFGNWSSPEPTCQVIQCEPLSAPDLGIMNCSHPLASFSFTSACTFICSEGTELIGKKKTICESSGIWSNPSPICQKLDKSFSMIKEGDYNPLFIPVAVMVTAFSGLAFIIWLARRLKKGKKAKRAMNDPY
modifications: left off: eGFP (donor copy) or mCherry (acceptor copy, called RFP), C-terminal, kept

How the values were obtained:
[1] = test system: THP-1 cells on immobilized biglycan; settings: isolated THP-1 cells, L-selectin-GFP/RFP; cited from earlier work
Excerpt: This figure pieces together data from our recently published work ([8], [23]) with our data from this study. (A,B) In cells expressing WT L-selectin, clustering is only witnessed within pseudopods of transmigrating cells. […] Moesin-driven clustering is a pre-requisite for L-selectin shedding, and so the balance of L-select ...

[2] = test system: THP-1 cells; experiment: Antibody-mediated clustering (AMC) of L-selectin-GFP/RFP, FLIM/FRET; format: cell-based, human; settings: for change in FRET efficiency on AMC or versus comparator (in words) / FRET efficiency after AMC: DREG56 plus secondary antibody; for FRET efficiency after AMC: 10 min at 37°C, GFP/RFP pair
Excerpt: (A) Schematic representation of the cleavage site, transmembrane domain (TMD), and cytoplasmic tail of human L-selectin. Red underlined region of the cleavage site denotes the amino acids that are deleted in ΔM-N L-selectin. […] Red arrow points to the position of the cut site of the L-selectin cleavage domain. (B) Cells expressing matched levels of L-selectin-GFP/RFP in the following forms: WT, ΔM-N, SSAA, ΔM-N^SSAA, and R357A were subjected to AMC using Alexa Fluor 647-conjugated DREG56 or isotype-matched control, followed by goat anti-mouse secondary antibody (see Materials and Methods for more detail). Cells were plated onto poly-L-lysine-coated coverslips and prepared for FLIM/FRET analysis (see materials and methods). FLIM was used to measure the FRET efficiency between the GFP/RFP donor/acceptor pairs as a direct function of cytoplasmic tail clustering […]. At least 45 individual cells were analyzed over 3 independent clustering assays. (C) Representative images are shown for each cell line. The lifetime of fluorescence (Lftm) is expressed in a pseudocolour scale from red (low lifetime with a very high probability of interaction) to blue (high lifetime with a very low probability of interaction). […] Cells were lysed directly in protein loading buffer (containing the reducing agent, dithiothreitol) and resolved onto standard (lower panel) or phos-tag (upper panel) polyacrylamide gels. Antibodies to GFP and RFP were used to, respectively, probe ΔM-N and ΔM-N^SSAA on Western blots. […] Statistics: One-Way ANOVA Tukey's multiple comparison test. **p ≤ 0.01; ***p ≤ 0.001; ****p ≤ 0.0001.
THP-1 cells were adjusted the night before AMC to a density of 0.5 ×10^6 cells per mL. On the same day, 13 mm diameter glass coverslips (thickness “1”) were placed into the base of a 24 well dish, spotted with 100 μL of poly-L-lysine (PLL) to immobilize according to manufacturer's instruction. On the day of the assay, THP-1 cells were counted and adjusted to a density of 1 ×10^6 per mL in 500 μL containing antibody labeling buffer (RPMI culture medium containing FcR block [Miltenyi Biotec]). Cells were labeled with 2 μg per mL DREG56 for 30 min at 4°C, followed by washing (by centrifugation at 300 g and resuspension) in ice cold culture media to remove excess unbound antibody and then incubated back in ice cold labeling buffer containing secondary antibody conjugated to Alexa Fluor […] (Thermo Fisher) for a further 30 min at 4°C. Cells were then washed twice in ice cold neat RPMI and resuspended to 100 μL of neat ice cold RPMI before 80 μL of the cell suspension was seeded onto 13 mm diameter glass coverslips (thickness = “1”), which were pre-coated with PLL-coated the night before. The seeded cells were placed into a humidified cell culture incubator at 37°C and 5% CO2 for 10 min to drive clustering. Adhered cells were flooded in excess 4% paraformaldehyde and fixed for 15 min at room temperature. Fixed coverslips were washed 3 times in PBS and then treated in 10 mg/mL of Sodium Borohydride dissolved in phosphate buffered saline for 10 min at room temperature (to eliminate autofluorescence and enhance signal to noise ratios). Coverslips were subsequently washed in PBS to remove sodium borohydride and mounted using DAKO mounting medium.
FLIM measurement of FRET was performed with a multiphoton microscope system as described previously ([8], [23]). A Nikon TE2000E inverted microscope, combined with an in-house scanner and Chameleon Ti:Sapphire ultrafast pulsed multiphoton laser (Coherent Inc.), was used for excitation of GFP (at 890 nm). Fluorescence lifetime imaging capability was provided by time-correlated, single-photon counting electronics (SPC 700; Becker & Hickl). A 40 × objective (NA 1.3) was used throughout (CFI60 Plan Fluor; Nikon), and data were acquired at 500 ± 20 nm through a bandpass filter (35–5040; Coherent Inc.). […]

[3] = at least 45 cells, 3 independent assays

Row | Molecule | clustering on immobilized biglycan [1] | change in FRET efficiency on AMC or versus comparator (in words) [2] | FRET efficiency after AMC [2, 3] [%] | FRET efficiency without AMC ([2]; WT L-selectin-GFP/RFP before AMC (isotype-matched control), at least 45 cells, 3 independent assays) [%]
1 | B1 | can cluster when seeded onto immobilized biglycan | significantly increased the FRET efficiency | 12.39 | 1.35
2 | B2 | – | modest but significant drop in FRET efficiency compared to WT L-selectin | 9.25 | –
